# B1: humanized anti-CDH17 antibody 07-0653-h43 (antibody, human IgG1, V domains shown)
# VH: QVQLVQSGAEVKKPGASVKVSCKASGYTFTDYYMNWVRQAPGQGLEWMGVIYPYSGGIGYAQKFQGRVTMTVDKSTSTAYMELSSLRSEDTAVYYCARGRGDYFGLFDFWGQGTTVTVSS
# VL: DIQLTQSPSSLSASVGDRVTITCRATSSLSYIHWYQQKPGKAPKPLIYEISKLASGVPSRFSGSGSGTDYTLTISSLQPEDFATYYCQQWNYPFTFGQGTKLEIK
# notes: also called CDH17-653-h43
# Key:
# [1] = molecular target: T1, human cadherin-17 (CDH17), endogenously expressed on human cancer cell lines (LS513, SNU-C1, PaTu8988s, … (human, UniProt Q12864 23-832)); assay: KinExA, cell-based, SNUC1 cells
# T1 construct: also called LS513 (Colon, CDH17+); HPAF2
# [2] = molecular target: T2, recombinant CDH17 extracellular domain (ECD) with 6x His tag (human, UniProt Q12864 23-787); assay: ELISA on recombinant CDH17 ECD-6xHis
# T2 construct: also called Recombinant CDH17 ECD-6xhis tag
# [3] = molecular target: T1, human cadherin-17 (CDH17), endogenously …; assay: flow cytometry (iQue) on LS513 cells, 1 µg Ab
# [4] = molecular target: T1, human cadherin-17 (CDH17), endogenously …; assay: flow cytometry (iQue) on SNUC1 cells, 1 µg Ab
# [5] = molecular target: T3, human CDH17-mGFP fusion protein overexpressed on HEK293T cells (clone G11) (human, UniProt Q12864 23-832); assay: KinExA, cell-based, HEK293T CDH17mGFP clone G11
# T3 construct: also called HEK293T CDH17mGFP Clone G11; HEK293T Human CDH17mGFP G11; not shown: mGFP fluorescent protein fused to CDH17
# Protocol: (§1) The cell-based antibody affinity (KD) of the anti-CDH17 antibodies was measured by KinExA 4000 (Sapidyne Instrument, Boise, Idaho). Briefly, HEK293T overexpressing CDH17-fluorescent protein fusion (i.e., human CDH17-mGFP, monkey CDH17-mGFP, mouse CDH17-mGFP or rat CDH17-mGFP) were detached with Versene and equilibrated with either 50 pM, 200 pM, 20 nM, or 50 nM antibody in 2% FBS/DMEM at 4° C. overnight. The cell concentration started at 5×10⁶ cells/mL or 1×10⁷ cells/mL and 2-fold serial dilutions were performed up to 10 points. The next day, the cells were centrifuged at 1500 rpm for 10 min and the supernatants were saved. […] In contrast, while the humanized anti-CDH17 antibody, 07-0653-h43, fails to bind mouse CDH17 protein, it binds rat CDH17 protein equally well as to human and monkey CDH17 protein such that its Kp is less than about 1 nM for human, monkey and rat CDH17 proteins with overlapping 95% confidence interval values.
# [6] = molecular target: T1, human cadherin-17 (CDH17), endogenously …; assay: flow cytometry (iQue) on LS513 cells, 0.2 µg Ab
# [7] = molecular target: T1, human cadherin-17 (CDH17), endogenously …; assay: flow cytometry (iQue) on SNUC1 cells, 0.2 µg Ab
# [8] = molecular target: T1, human cadherin-17 (CDH17), endogenously …; assay: flow cytometry on LS513 cells (CDH17+), 20 µg/ml
# [9] = molecular target: T1, human cadherin-17 (CDH17), endogenously …; assay: flow cytometry (iQue) on PATU8988S cells, 1 µg Ab
# [10] = molecular target: T1, human cadherin-17 (CDH17), endogenously …; assay: flow cytometry (iQue) on PATU8988S cells, 0.2 µg Ab
# [11] = molecular target: T3, human CDH17-mGFP fusion protein …; assay: flow cytometry on HEK293T human CDH17mGFP G11, 20 µg/ml
# [12] = molecular target: T4, rat CDH17 fused to moxGFP, overexpressed on HEK293T cells (rat, UniProt P55281 22-827); assay: KinExA, cell-based, HEK293T rat CDH17mGFP mass population
# T4 construct: whole, on cells; also called HEK293T Rat CDH17mGFP mass pop; rat CDH17-moxGFP
# Protocol: as §1
# [13] = molecular target: T3, human CDH17-mGFP fusion protein …; assay: KinExA, cell-based, HEK293T overexpressing human CDH17-mGFP (FIG. 16)
# Protocol: as §1
# [14] = molecular target: T4, rat CDH17 fused to moxGFP, …; assay: KinExA, cell-based, HEK293T overexpressing rat CDH17 fusion (FIG. 16)
# Protocol: as §1
# [15] = molecular target: T4, rat CDH17 fused to moxGFP, …; assay: flow cytometry on HEK293T rat CDH17mGFP mass population, 20 µg/ml
# [16] = molecular target: T3, human CDH17-mGFP fusion protein …; assay: KinExA, cell-based, HEK293T human CDH17mGFP G11 (same value as r12)
# Protocol: as §1
# [17] = molecular target: T5, mouse CDH17-mGFP fusion protein overexpressed on HEK293T cells (mouse, UniProt Q9R100 26-827); assay: flow cytometry on HEK293T mouse CDH17mGFP mass population, 20 µg/ml
# T5 construct: also called HEK293T Mouse CDH17mGFP mass; not shown: mGFP fluorescent protein
# [18] = molecular target: T3, human CDH17-mGFP fusion protein …; assay: flow cytometry (iQue) on HEK293T CDH17 mGFP clone G11 (human), 1 µg Ab
# [19] = molecular target: T3, human CDH17-mGFP fusion protein …; assay: flow cytometry (iQue) on HEK293T CDH17 mGFP clone G11 (human), 0.2 µg Ab
# T4 sequence (P55281 22-827): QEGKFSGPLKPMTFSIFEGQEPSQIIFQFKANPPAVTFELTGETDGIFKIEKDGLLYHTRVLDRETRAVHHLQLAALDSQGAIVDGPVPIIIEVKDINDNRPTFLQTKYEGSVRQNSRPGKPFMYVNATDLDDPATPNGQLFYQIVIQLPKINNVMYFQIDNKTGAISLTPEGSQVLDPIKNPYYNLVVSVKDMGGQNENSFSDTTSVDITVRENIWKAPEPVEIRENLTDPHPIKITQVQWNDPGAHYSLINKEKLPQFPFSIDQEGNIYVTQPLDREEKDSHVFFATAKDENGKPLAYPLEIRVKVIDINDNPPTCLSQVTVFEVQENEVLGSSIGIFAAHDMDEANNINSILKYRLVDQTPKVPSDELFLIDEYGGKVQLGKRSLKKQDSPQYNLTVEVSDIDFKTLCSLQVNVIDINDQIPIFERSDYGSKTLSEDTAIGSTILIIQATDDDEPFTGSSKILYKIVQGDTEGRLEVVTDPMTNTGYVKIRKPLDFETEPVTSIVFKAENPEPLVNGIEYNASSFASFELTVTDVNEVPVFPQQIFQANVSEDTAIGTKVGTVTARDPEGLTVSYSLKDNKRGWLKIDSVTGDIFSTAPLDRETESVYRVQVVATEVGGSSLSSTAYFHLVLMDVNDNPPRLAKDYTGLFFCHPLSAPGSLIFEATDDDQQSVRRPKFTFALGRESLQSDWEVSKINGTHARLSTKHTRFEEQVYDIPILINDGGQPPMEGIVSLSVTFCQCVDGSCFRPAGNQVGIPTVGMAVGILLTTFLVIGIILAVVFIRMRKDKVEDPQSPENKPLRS
# T5 sequence (Q9R100 26-827): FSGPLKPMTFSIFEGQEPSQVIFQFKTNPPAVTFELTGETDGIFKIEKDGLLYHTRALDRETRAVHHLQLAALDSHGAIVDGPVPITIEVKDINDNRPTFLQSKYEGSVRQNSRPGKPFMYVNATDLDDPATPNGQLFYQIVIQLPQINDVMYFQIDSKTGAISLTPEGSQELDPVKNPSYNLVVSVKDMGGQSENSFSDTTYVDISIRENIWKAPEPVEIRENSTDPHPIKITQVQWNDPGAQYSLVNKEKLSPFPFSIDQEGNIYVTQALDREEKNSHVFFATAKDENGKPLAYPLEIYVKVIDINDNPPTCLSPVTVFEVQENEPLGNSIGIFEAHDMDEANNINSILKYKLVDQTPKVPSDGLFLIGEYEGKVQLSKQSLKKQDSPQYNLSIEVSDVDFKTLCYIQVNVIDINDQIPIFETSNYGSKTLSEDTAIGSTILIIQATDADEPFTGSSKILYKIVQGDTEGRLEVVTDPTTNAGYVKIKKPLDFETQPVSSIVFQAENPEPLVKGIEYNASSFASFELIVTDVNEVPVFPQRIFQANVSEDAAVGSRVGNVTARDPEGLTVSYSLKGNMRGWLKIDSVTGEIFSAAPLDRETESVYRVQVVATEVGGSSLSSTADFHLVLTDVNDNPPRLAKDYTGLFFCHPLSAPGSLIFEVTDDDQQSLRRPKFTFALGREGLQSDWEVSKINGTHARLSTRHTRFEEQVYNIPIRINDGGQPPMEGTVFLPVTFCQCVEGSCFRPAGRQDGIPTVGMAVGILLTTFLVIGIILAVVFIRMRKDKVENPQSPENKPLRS
binder,measurement,setting,value
B1,Kd,[1],0.206 nM
same,EC50,[2],1.13 nM
same,Antibody Binding Activity by Flow iQue,[3],1.83e+06
same,Antibody Binding Activity by Flow iQue,[4],61400
same,Kd,[5],0.736 nM
same,Antibody Binding Activity by Flow iQue,[6],1.79e+06
same,Antibody Binding Activity by Flow iQue,[7],77200
same,Antibody Binding Activity by Flow Cytometry,[8],24300
same,Antibody Binding Activity by Flow iQue,[9],52200
same,Antibody Binding Activity by Flow iQue,[10],48100
same,Cross Reactivity by Flow,[11],51800
same,Kd,[12],0.535 nM
same,Kd,[13],< 1 nM
same,Kd,[14],< 1 nM
same,Cross Reactivity by Flow,[15],71800
same,Kd,[16],0.736 nM
same,Cross Reactivity by Flow,[17],2460
same,Antibody Binding Activity by Flow iQue,[18],191000
same,Antibody Binding Activity by Flow iQue,[19],51800

# From patent US20250051437A1 (University of California, published 2025)
